Several values for one entry are separate records, joined by “and”; a condition that tells them apart may be missing. Equal values may be shown once.
Tests used:
[1] = molecular target: HIV-1 16055 envelope (HIV-1); experiment: capture ELISA, plate 1, mAb 0.3 ug/ml
[2] = molecular target: HIV-1 JRCSF envelope (HIV-1) (UniProt P20871); experiment: capture ELISA, plate 1, mAb 0.3 ug/ml
[3] = molecular target: HIV-1 JRFL envelope (HIV-1); experiment: capture ELISA, plate 1, mAb 0.3 ug/ml
[4] = molecular target: HIV-1 envelope clone BF-002.c08 (multiclade gp160 clone panel) (HIV-1); experiment: capture ELISA, plate 1, mAb 0.3 ug/ml
[5] = molecular target: HIV-1 envelope clone G-011.c02 (multiclade gp160 clone panel) (HIV-1); experiment: capture ELISA, plate 1, mAb 0.3 ug/ml
[6] = molecular target: HIV-1 envelope of gp160 clone B-Acute-008.c11 (HIV-1); experiment: capture ELISA, plate 1, mAb 0.3 ug/ml
[7] = molecular target: HIV-1 envelope of gp160 clone B-Acute-010.c08 (HIV-1); experiment: capture ELISA, plate 1, mAb 0.3 ug/ml
[8] = molecular target: HIV-1 envelope of gp160 clone B-Acute-010.c09 (HIV-1); experiment: capture ELISA, plate 1, mAb 0.3 ug/ml
[9] = molecular target: HIV-1 envelope of gp160 clone B-Chronic-014.c02 (HIV-1); experiment: capture ELISA, plate 1, mAb 0.3 ug/ml
[10] = molecular target: HIV-1 16055 envelope (HIV-1); experiment: capture ELISA, plate 1, mAb 0.8 ug/ml
[11] = molecular target: HIV-1 JRFL envelope (HIV-1); experiment: capture ELISA, plate 1, mAb 0.8 ug/ml
[12] = molecular target: HIV-1 envelope clone BF-002.c05 (multiclade gp160 clone panel) (HIV-1); experiment: capture ELISA, plate 1, mAb 0.8 ug/ml
[13] = molecular target: HIV-1 envelope clone BF-002.c08 (multiclade gp160 clone panel) (HIV-1); experiment: capture ELISA, plate 1, mAb 0.8 ug/ml
[14] = molecular target: HIV-1 envelope clone G-011.c02 (multiclade gp160 clone panel) (HIV-1); experiment: capture ELISA, plate 1, mAb 0.8 ug/ml
[15] = molecular target: HIV-1 envelope clone G-011.c05 (multiclade gp160 clone panel) (HIV-1); experiment: capture ELISA, plate 1, mAb 0.8 ug/ml
[16] = molecular target: HIV-1 envelope of gp160 clone AG-010.c11 (HIV-1); experiment: capture ELISA, plate 1, mAb 0.8 ug/ml
[17] = molecular target: HIV-1 envelope of gp160 clone B-Acute-008.c11 (HIV-1); experiment: capture ELISA, plate 1, mAb 0.8 ug/ml
[18] = molecular target: HIV-1 envelope of gp160 clone B-Acute-010.c08 (HIV-1); experiment: capture ELISA, plate 1, mAb 0.8 ug/ml
[19] = molecular target: HIV-1 envelope of gp160 clone B-Acute-010.c09 (HIV-1); experiment: capture ELISA, plate 1, mAb 0.8 ug/ml
[20] = molecular target: HIV-1 envelope of gp160 clone B-Chronic-014.c02 (HIV-1); experiment: capture ELISA, plate 1, mAb 0.8 ug/ml
[21] = molecular target: HIV-1 16055 envelope (HIV-1); experiment: capture ELISA, plate 2, mAb 0.3 ug/ml
[22] = molecular target: HIV-1 JRCSF envelope (HIV-1) (UniProt P20871); experiment: capture ELISA, plate 2, mAb 0.3 ug/ml
[23] = molecular target: HIV-1 JRFL envelope (HIV-1); experiment: capture ELISA, plate 2, mAb 0.3 ug/ml
[24] = molecular target: HIV-1 envelope clone BF-002.c05 (multiclade gp160 clone panel) (HIV-1); experiment: capture ELISA, plate 2, mAb 0.3 ug/ml
[25] = molecular target: HIV-1 envelope clone BF-002.c08 (multiclade gp160 clone panel) (HIV-1); experiment: capture ELISA, plate 2, mAb 0.3 ug/ml
[26] = molecular target: HIV-1 envelope clone F1-002.c11 (multiclade gp160 clone panel) (HIV-1); experiment: capture ELISA, plate 2, mAb 0.3 ug/ml
[27] = molecular target: HIV-1 envelope clone F1-002.c16 (multiclade gp160 clone panel) (HIV-1); experiment: capture ELISA, plate 2, mAb 0.3 ug/ml
[28] = molecular target: HIV-1 envelope clone G-011.c02 (multiclade gp160 clone panel) (HIV-1); experiment: capture ELISA, plate 2, mAb 0.3 ug/ml
[29] = molecular target: HIV-1 envelope clone G-011.c05 (multiclade gp160 clone panel) (HIV-1); experiment: capture ELISA, plate 2, mAb 0.3 ug/ml
[30] = molecular target: HIV-1 envelope of gp160 clone AG-010.c11 (HIV-1); experiment: capture ELISA, plate 2, mAb 0.3 ug/ml
[31] = molecular target: HIV-1 envelope of gp160 clone AG-010.c14 (HIV-1); experiment: capture ELISA, plate 2, mAb 0.3 ug/ml
[32] = molecular target: HIV-1 envelope of gp160 clone B-Acute-008.c11 (HIV-1); experiment: capture ELISA, plate 2, mAb 0.3 ug/ml
[33] = molecular target: HIV-1 envelope of gp160 clone B-Acute-009-c08 (HIV-1); experiment: capture ELISA, plate 2, mAb 0.3 ug/ml
[34] = molecular target: HIV-1 envelope of gp160 clone B-Acute-010.c08 (HIV-1); experiment: capture ELISA, plate 2, mAb 0.3 ug/ml
[35] = molecular target: HIV-1 envelope of gp160 clone B-Acute-010.c09 (HIV-1); experiment: capture ELISA, plate 2, mAb 0.3 ug/ml
[36] = molecular target: HIV-1 envelope of gp160 clone B-Chronic-014.c02 (HIV-1); experiment: capture ELISA, plate 2, mAb 0.3 ug/ml
[37] = molecular target: BG505 envelope (gp120 monomer released from lysed pseudovirus) (HIV-1); experiment: antigen capture ELISA, mAb 0.8 ug/ml, plate 2
[38] = molecular target: aMLV envelope (from lysed pseudovirus); experiment: antigen capture ELISA, mAb 0.8 ug/ml, plate 2

## PGT145 (antibody)
[1]
  ELISA OD: 0.057 OD and 0.069 OD
[2]
  ELISA OD: 0.083 OD and 0.072 OD
[3]
  ELISA OD: 0.063 OD and 0.071 OD
[4]
  ELISA OD: 0.065 OD
[5]
  ELISA OD: 0.084 OD
[6]
  ELISA OD: 0.099 OD
[7]
  ELISA OD: 0.081 OD
[8]
  ELISA OD: 0.065 OD
[9]
  ELISA OD: 0.056 OD
[10]
  ELISA OD: 0.065 OD and 0.059 OD
[11]
  ELISA OD: 0.057 OD and 0.051 OD
[12]
  ELISA OD: 0.169 OD
[13]
  ELISA OD: 0.054 OD
[14]
  ELISA OD: 0.062 OD
[15]
  ELISA OD: 0.08 OD
[16]
  ELISA OD: 0.054 OD
[17]
  ELISA OD: 0.078 OD
[18]
  ELISA OD: 0.114 OD
[19]
  ELISA OD: 0.06 OD
[20]
  ELISA OD: 0.083 OD
[21]
  ELISA OD: 0.066 OD and 0.1 OD
[22]
  ELISA OD: 0.067 OD and 0.115 OD
[23]
  ELISA OD: 0.068 OD and 0.08 OD
[24]
  ELISA OD: 0.114 OD
[25]
  ELISA OD: 0.088 OD
[26]
  ELISA OD: 0.059 OD
[27]
  ELISA OD: 0.254 OD
[28]
  ELISA OD: 0.104 OD
[29]
  ELISA OD: 0.074 OD
[30]
  ELISA OD: 0.075 OD
[31]
  ELISA OD: 0.061 OD
[32]
  ELISA OD: 0.092 OD
[33]
  ELISA OD: 0.084 OD
[34]
  ELISA OD: 0.088 OD
[35]
  ELISA OD: 0.082 OD
[36]
  ELISA OD: 0.058 OD
[37]
  ELISA OD: 0.066 OD
[38]
  ELISA OD: 0.062 OD
